Assay [1] addresses T1, Recombinant human PD-1 (Sino Biological Inc., Catalog Number 10377-H08H) (human, UniProt Q15116 25-167).
T1 construct: Bought protein; also called antigen PD-1
Put plainly: ELISA, human PD-1 coated. The method, then: (§1) Recombinant human PD-1 (purchased from Sino Biological Inc.) was coated on a 96-well high-absorbing ELISA plate with a carbonate buffer solution with pH 9.6, the coating concentration was 1 μg/mL, the coating amount was 100 μL per well, and the coating was carried out at 4° C. overnight. The plate was washed five times with PBST and blocked with 300 μL/well of PBST containing 1% BSA, and then incubated at 25° C. for 1 hour. The plate was washed five times with PBST. […] The plate was washed five times with PBST. Then, horseradish peroxidase-labeled anti-human IgG antibody (Chemicon, Catalog Number AP309P) 1:2000 diluted in PBST containing 1% BSA was added, 100 μL per well, incubated at 25° C. for 1 hour. The plate was washed five times with PBST. 100 μL/well of colorimetric substrate TMB was added and incubated at room temperature for 10 minutes. Color development was terminated by adding 100 μL/well of 1 M H₂SO₄. The absorbance at 450 nm was read on a microplate reader.

For assay [2], the target named is T2, Recombinant human B7-H2 (Sino Biological Inc.) (human, UniProt O75144 19-256, limits assumed).
T2 sequence (looked up): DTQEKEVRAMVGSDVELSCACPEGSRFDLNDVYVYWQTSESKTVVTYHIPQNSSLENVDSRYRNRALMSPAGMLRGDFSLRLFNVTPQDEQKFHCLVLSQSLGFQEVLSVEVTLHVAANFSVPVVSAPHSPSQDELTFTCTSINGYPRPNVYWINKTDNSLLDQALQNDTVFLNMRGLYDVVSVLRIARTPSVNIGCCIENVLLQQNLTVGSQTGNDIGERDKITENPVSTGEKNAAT
The experiment in a line: binding specificity ELISA, coated recombinant human B7-H2, anti-human IgG-HRP. The method, then: as §1, with “The” for “Recombinant human PD-1 (purchased from Sino Biological Inc.) was coated on a 96-well high-absorbing ELISA plate with a carbonate buffer solution with pH 9.6, the coating concentration was 1 μg/mL, the coating amount was 100 μL per well, and the coating was carried out at 4° C. overnight. The”, “1% BSA” for “1% BSA,”, “and” for “and then”, “μL was added to each” for “μL per”

In assay [3] the target is T3, Recombinant human PD-1-Fc (human, UniProt Q15116 25-167, limits assumed).
T3 construct: also called recombinant human PD-1-Fc protein; not shown: Fc part
The experiment in a line: competition ELISA, PD-1-Fc coated, competitor biotin-labeled PD-L1. On the procedure: (§2) Recombinant human PD-1-Fc was coated on a 96-well high-absorbing ELISA plate with a carbonate buffer solution with pH 9.6, the coating concentration was 1 μg/mL, the coating amount was 100 μL per well, and the coating was carried at 4° C. out overnight. The plate was washed five times with PBST and blocked with 300 μL/well of PBST containing 1% BSA and incubated at 25° C. for 1 hour. The plate was washed five times with PBST. The positive control and the anti-human PD-1 antibody sample were added, 50 μL per well. […] The plate was washed five times with PBST. Then, Streptavidin-HRP (BD Pharmingen, Catalog Number 554066) 1:1000 diluted in PBST containing 1% BSA was added, 100 μL per well, incubated at 25° C. for 1 hour. The plate was washed five times with PBST. 100 μL/well of colorimetric substrate TMB was added and incubated at room temperature for 10 minutes. Color development was terminated by adding 100 μL/well of 1 M H₂SO₄. The absorbance at 450 nm was read on a microplate reader.
On the technique in general: ELISA stands for enzyme-linked immunosorbent assay.

The target in assay [4] is Recombinant human CD28 (Sino Biological Inc.) (human, UniProt P10747 19-152). The experiment in a line: binding specificity ELISA, coated recombinant human CD28, anti-human IgG-HRP. On the procedure:
as §1, with “The” for “Recombinant human PD-1 (purchased from Sino Biological Inc.) was coated on a 96-well high-absorbing ELISA plate with a carbonate buffer solution with pH 9.6, the coating concentration was 1 μg/mL, the coating amount was 100 μL per well, and the coating was carried out at 4° C. overnight. The”, “1% BSA” for “1% BSA,”, “and” for “and then”, “μL was added to each” for “μL per”

Assay [5] deals with T3, Recombinant human PD-1-Fc. Put plainly: competition ELISA, coated human PD-1-Fc, blocked ligand biotin-labeled PD-L2 (final 160 nM), streptavidin-HRP, OD450nm [panel PD-1/PD-L2 Blocking Activity]. On the procedure: as §2
The target in assay [6] is T4, Recombinant human PD-L2 (Sino Biological Inc.) (human, UniProt Q9BQ51 20-220).
T4 sequence (looked up): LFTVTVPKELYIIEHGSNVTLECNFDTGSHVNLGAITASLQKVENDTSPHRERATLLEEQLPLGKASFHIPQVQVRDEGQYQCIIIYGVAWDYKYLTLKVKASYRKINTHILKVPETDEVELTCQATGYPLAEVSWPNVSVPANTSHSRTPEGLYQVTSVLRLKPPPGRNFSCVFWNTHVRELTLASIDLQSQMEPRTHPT
Put plainly: binding specificity ELISA, coated recombinant human PD-L2, anti-human IgG-HRP. On the procedure:
as §1, with “The” for “Recombinant human PD-1 (purchased from Sino Biological Inc.) was coated on a 96-well high-absorbing ELISA plate with a carbonate buffer solution with pH 9.6, the coating concentration was 1 μg/mL, the coating amount was 100 μL per well, and the coating was carried out at 4° C. overnight. The”, “1% BSA” for “1% BSA,”, “and” for “and then”, “μL was added to each” for “μL per”

For assay [7], the target named is T5, Recombinant human BTLA (Sino Biological Inc.) (human, UniProt Q7Z6A9 31-157, limits assumed).
T5 sequence (looked up): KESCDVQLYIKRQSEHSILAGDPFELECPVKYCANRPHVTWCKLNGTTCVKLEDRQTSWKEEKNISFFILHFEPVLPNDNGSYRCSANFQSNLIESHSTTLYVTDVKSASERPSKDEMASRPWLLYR
The experiment in a line: binding specificity ELISA, coated recombinant human BTLA, anti-human IgG-HRP. The method, then: as §1, with “The” for “Recombinant human PD-1 (purchased from Sino Biological Inc.) was coated on a 96-well high-absorbing ELISA plate with a carbonate buffer solution with pH 9.6, the coating concentration was 1 μg/mL, the coating amount was 100 μL per well, and the coating was carried out at 4° C. overnight. The”, “1% BSA” for “1% BSA,”, “and” for “and then”, “μL was added to each” for “μL per”

For assay [8], the target named is Recombinant monkey PD-1 (Sino Biological Inc.) (monkey). Put plainly: species specificity ELISA, coated recombinant monkey PD-1 (1 ug/mL), anti-human IgG-HRP, OD450nm. On the procedure: Recombinant human PD-1, monkey PD-1, rat PD-1 and mouse PD-1 (all purchased from Sino Biological Inc.), were coated on a 96-well high-absorbing ELISA plate with a carbonate buffer solution with pH 9.6, the coating concentration was 1 μg/mL, the coating amount was 100 μL per well, and the coating was carried out at 4° C. overnight. The plate was washed five times with PBST and blocked with 300 μL/well of PBST containing 1% BSA, and then incubated at 25° C. for 1 hour. The plate was washed five times with PBST. […] The plate was washed five times with PBST. Then, horseradish peroxidase-labeled anti-human IgG antibody (Chemicon, Catalog Number AP309P) 1:2000 diluted in PBST containing 1% BSA was added, 100 μL per well, incubated at 25° C. for 1 hour. The plate was washed five times with PBST. 100 μL/well of colorimetric substrate TMB was added and incubated at room temperature for 10 minutes. Color development was terminated by adding 100 μL/well of 1 M H₂SO₄: The absorbance at 450 nm was read on a microplate reader.

T3 sequence (Q15116 25-167 limits assumed): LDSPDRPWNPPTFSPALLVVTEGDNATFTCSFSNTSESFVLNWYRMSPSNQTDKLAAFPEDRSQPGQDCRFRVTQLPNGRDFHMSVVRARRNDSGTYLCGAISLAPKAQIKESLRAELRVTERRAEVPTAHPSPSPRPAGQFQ
Sequence of Recombinant human CD28 (Sino Biological Inc.) (P10747 19-152 limits assumed): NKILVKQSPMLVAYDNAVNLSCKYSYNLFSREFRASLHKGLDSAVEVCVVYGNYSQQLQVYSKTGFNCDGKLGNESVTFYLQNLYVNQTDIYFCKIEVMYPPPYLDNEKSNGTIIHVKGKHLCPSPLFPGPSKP
T1 sequence (Q15116 25-167 limits assumed): as the sequence (Q15116 25-167 limits assumed) above

B1: anti-human PD-1 chimeric monoclonal antibody (antibody, human IgG4 S228P, kappa, V domains shown)
VH: EVQLQESGGGLVKPGGSLKLSCAASGFTFSSYGMSWVRQTPEKRLEWVASISGGGRYTYYPDSMKGRFTISRDNAKNNLHLQMSSLRSEDTALYYCVYEYFYTMDYWGQGTSVTVSS
VL: DIVLTQSPATLSVTPGDSVSLSCRANQSISNNLHWYQQRSHESPRLLIRFASQSISGIPSRFSGSGSGTDFTLSINSVETEDFGMYFCQQSDNWPLTFGAGTKLEIKR
notes: expressed in 293F cells; also called Anti-human PD-1 Chimeric Antibody; chimeric anti-human PD-1 monoclonal antibody
A word on the EC50: it is the concentration at which the effect is half-maximal. In general, IC50 refers to the point on the concentration scale where inhibition reaches its midpoint. Regarding B1, the values for the EC50 in assay [1] and in assay [8] were 0.031 nM and 0.1 nM, respectively. Also, the binding result in assay [2], in assay [4], in assay [6] and in assay [7] was “no binding” in each case. Also, the results for the half-maximal inhibitory concentration (IC50) in assay [3] and in assay [5] were 1.45 nM and 0.895 nM, respectively.

These data come from patent US20190367615A1 (BEIJING HANMI PHARM, published 2019).
